Assay results taken from doi:10.1101/2025.08.15.670619.

Target: Full-length Synechococcus PCC 7335 nitric oxide synthase (syNOS) (Synechococcus sp. PCC 7335)
Assay: cryo-EM structure

stoichiometry N: 2
Substance: Full-length Synechococcus PCC 7335 nitric oxide synthase (syNOS) (enzyme)
